Target: MMP-2 (UniProt P08253)
Assay: cell-based or functional assay

UniProt P08253, sequence (P08253 110-660 limits assumed): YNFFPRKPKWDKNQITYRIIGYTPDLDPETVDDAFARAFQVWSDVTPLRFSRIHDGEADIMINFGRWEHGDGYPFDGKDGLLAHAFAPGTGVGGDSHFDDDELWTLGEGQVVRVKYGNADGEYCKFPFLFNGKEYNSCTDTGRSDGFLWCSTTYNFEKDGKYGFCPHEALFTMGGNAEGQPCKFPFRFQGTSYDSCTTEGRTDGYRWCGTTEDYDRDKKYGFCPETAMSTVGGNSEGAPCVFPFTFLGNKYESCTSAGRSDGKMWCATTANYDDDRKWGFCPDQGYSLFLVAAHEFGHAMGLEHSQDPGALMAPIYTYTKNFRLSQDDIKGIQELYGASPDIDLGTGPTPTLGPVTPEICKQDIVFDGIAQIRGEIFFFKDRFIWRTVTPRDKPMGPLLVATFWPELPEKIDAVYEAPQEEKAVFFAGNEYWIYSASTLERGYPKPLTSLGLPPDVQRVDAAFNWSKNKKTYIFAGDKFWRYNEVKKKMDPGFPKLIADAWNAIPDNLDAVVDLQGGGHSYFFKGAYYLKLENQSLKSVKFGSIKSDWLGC

“human serum albumin-TIMP2 fusion protein” gave an inhibition of MMP-2 activity (spectrofluorometric assay, 10 nM MMP-2, 10 µM MCA-Pro-Leu-Gly-Leu-Dap(Dnp)-Ala-Arg-NH2 substrate) at 7.5 µg/ml HSA-TIMP2 of 37% and an inhibition of MMP-2 activity (spectrofluorometric assay, 10 nM MMP-2, 10 µM MCA-Pro-Leu-Gly-Leu-Dap(Dnp)-Ala-Arg-NH2 substrate) at 15 µg/ml HSA-TIMP2 of 55%.

From patent US20050048627A1
